Assay results published in patent publication US20220396631A1 (Novartis, published 2022).

T1: human BCMA (human, UniProt Q02223 1-54, limits assumed)
T1 construct: also called B-cell maturation antigen; TNFRSF17
T1 sequence (looked up): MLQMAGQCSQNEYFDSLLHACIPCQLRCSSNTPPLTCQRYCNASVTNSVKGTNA

B1: H2/L2-36 (antibody, V domains shown)
VH: QAQLQSSGGGVVQPGRSLRLSCAASGFTFSSYGMHWVRQAPGKGLEWVAVISYKGSNKYYADSVKGRFTISRDNSKNTLYLQMNSLRAEDTAVYYCGGSGYALHDDYYGLDVWGQGTLVTVSS
VL: QSALTQPASVSGSPGQSITISCTGTSSDVGGYNYVSWYQQHPGKAPKLMIYEVSNRLRGVSNRFSGSKFGNTASLTISGLQAEDEADYYCSSYTSSSTLYVFGSGTKVTVL
notes: AB3 family
B2: H2/L2-83 (antibody, V domains shown)
VH: QAQLQGSGGGVVQPGRSLRLSCAASGFTFSSYGMHWVRQAPGKGLEWVAVISYKGSNKYYADSVKGRFTISRDNSKNTLYLQMNSLRAEDTAVYYCGGSGYALHDDYYGLDVWGQGTLVTVSS
VL: QSALTQPASVSGSPGQSITISCTGTSSDVGGYNYVSWYQQHPGKAPKLMIYEVSNRLRGVSNRFSGSKFGNTASLTISGLQAEDEADYYCSSYTSSSTLYVFGSGTKVTVL
notes: AB3 family
B3: AB3 (antibody, V domains shown)
VH: QVQLVESGGGVVQPGRSLRLSCAASGFTVSSYGMHWVRQAPGKGLEWVAVISYTGSNKYYADSVKGRFTISRDNSKNTLYLQMNSLRAEDTAVYYCGGSGYALHDDYYGLDVWGQGTLVTVSS
VL: QSALTQPASVSGSPGQSITISCTGTSSDVGGYNYVSWYQQHPGKAPKLMIYDVSNRLRGVSNRFSGSKSGNTASLTISGLQAEDEADYYCSSYTSSSALYVFGSGTKVTVL
notes: AB3 family
B4: H3-3 (antibody, V domains shown)
VH: QVQLQSSGGGVVQPGRSLRLSCAASGFTVSSYGMHWVRQAPGKGLEWVAVISYSGSNKYYADSVKGRFTISRDNSKNTLYLQMNSLRAEDTAVYYCGGSGYALHDQYKPVDVWGQGTLVTVSS
VL: QSALTQPASVSGSPGQSITISCTGTSSDVGGYNYVSWYQQHPGKAPKLMIYEVSNRLRGVSNRFSGSKFGNTASLTISGLQAEDEADYYCSSYTSSSTLYVFGSGTKVTVL
notes: AB3 family
B5: H3-12 (antibody, V domains shown)
VH: QAQLQSSEGGVVQPGRSLRLSCAASGFTFSSYGMHWVRQAPGKGLEWVAVISYDESNKYYADSVKGRFTISRDNSKNTLYLQMNSLRAEDTAVYYCGGSGYEVDQDYYGLDVWGQGTLVTVSS
VL: QSALTQPASVSGSPGQSITISCTGTSSDVGGYNYVSWYQQHPGKAPKLMIYEVSNRLRGVSNRFSGSKFGNTASLTISGLQAEDEADYYCSSYTSSSTLYVFGSGTKVTVL
notes: AB3 family
B6: H3-10 (antibody, V domains shown)
VH: QVQLQSSGGGVVQPGRSLRLSCAASGFTFSSYGMHWVRQAPGKGLEWVAVISYNDLNKYYADSVKGRFTISRDNSKNTLYLQMNSLRAEDTAVYYCGGSGYEFQGDYYGLDVWGQGTLVTVSS
VL: QSALTQPASVSGSPGQSITISCTGTSSDVGGYNYVSWYQQHPGKAPKLMIYEVSNRLRGVSNRFSGSKFGNTASLTISGLQAEDEADYYCSSYTSSSTLYVFGSGTKVTVL
notes: AB3 family
B7: H3-5 (antibody, V domains shown)
VH: QVQLQGSGGGVVQPGRSLRLSCAASGFTFSSYGMHWVRQAPGKGLEWVAVISYTGANKYYADSVKGRFTISRDNSKNTLYLQMNSLRAEDTAVYYCGGSGYNLHDDYYGLDVWGQGTLVTVSS
VL: QSALTQPASVSGSPGQSITISCTGTSSDVGGYNYVSWYQQHPGKAPKLMIYEVSNRLSGVSNRFSGSKFGNTASLTISGLQAEDEADYYCSSYTSSSTLYVFGSGTKVTVL
notes: AB3 family
B8: H3-4 (antibody, V domains shown)
VH: QVQLQGSGGGVVQPGRSLRLSCAASGFTFSSYGMHWVRQAPGKGLEWVAVISYDDAHKYYADSVKGRFTISRDNSKNTLYLQMNSLRAEDTAVYYCGGSGYALHDQYKPVDVWGQGTLVTVSS
VL: QSALTQPASVSGSPGQSITISCTGTSSDVGGYNYVSWYQQHPGKAPKLMIYEVSNRLRGVSNRFSGSKFGNTASLTISGLQAEDEADYYCSSYTSSSALYVFGSGTKVTVL
notes: AB3 family
B9: H3-1 (antibody, V domains shown)
VH: QVQLQGSGGGVVQPGRSLRLSCAASGFTFSSYGMHWVRQAPGKGLEWVAVISYDDAHKYYADSVKGRFTISRDNSKNTLYLQMNSLRAEDTAVYYCGGSGYALHDQYKPVDVWGQGTLVTVSS
VL: QSALTQPASVSGSPGQSITISCTGTSSDVGGYNYVSWYQQHPGKAPKLMIYEVSNRLRGVSNRFSGSKFGNTASLTISGLQAEDEADYYCSSYTSSSTLYVFGSGTKVTVL
notes: AB3 family
B10: H3-9 (antibody, V domains shown)
VH: QVQLQGSGGGVVQPGRSLRLSCAASGFTFSSYGMHWVRQAPGKGLEWVAVISYDDAHKYYADSVKGRFTISRDNSKNTLYLQMNSLRAEDTAVYYCGGSGYALHDQYKPVDVWGQGTLVTVSS
VL: QSALTQPASVSGSPGQSITISCTGTSSDVGGYNYVSWYQQHPGKAPKLMIYEVSNRLRGVSNRFSGSKFGNTASLTISGLQAEDEAYYYCSSYTSSSTLYVFGSGTKVTVL
notes: AB3 family
B11: H3-8 (antibody, V domains shown)
VH: QAQLQGSEGGVVQPGRSLRLSCAASGFTFSSYGMHWVRQAPGKGLEWVAVISYDDAHKYYADSVKGRFTISRDNSKNTLYLQMNSLRAEDTAVYYCGGSGYALHDQYKPVDVWGQGTLVTVSS
VL: QSALTQPASVSGSPGQSITISCTGTSSDVGGYNYVSWYQQHPGKAPKLMIYEVSNRLRGVSNRFSGSKFGNTASLTISGLQAEDEADYYCSSYTSSSTLYVFGSGTKVTVL
notes: AB3 family
B12: H3-7 (antibody, V domains shown)
VH: QVQLQSSEGGVVQPGRSLRLSCAASGFTLSSYGMHWVRQAPGKGLEWVAVISYTGSNKYYADSVKGRFTISRDNSKNTLYLQMNSLRAEDTAVYYCGGSGYEFHEDYYGLDVWGQGTLVTVSS
VL: QSALTQPASVSGSPGQSITISCTGTSSDVGGYNYVSWYQQHPGKAPKLMIYEVSNRLRGVSNRFSGSKFGNTASLTISGLQAEDEADYYCSSYTSSSTLYVFGSGTKVTVL
notes: AB3 family
B13: H2/L2-47 (antibody, V domains shown)
VH: QVQLQSSEGGVVQPGRSLRLSCAASGFTFSSYGMHWVRQAPGKGLEWVAVISYKGSNKYYADSVKGRFTISRDNSKNTLYLQMNSLRAEDTAVYYCGGSGYALHDDYYGLDVWGQGTLVTVSS
VL: QSALTQPASVSGSPGQSITISCTGTSSDVGGYNYVSWYQQHPGKAPKLMIYDVSNRPWGVSNRFSGSKFGNTASLTISGLQAEDEADYYCSSYTSSSTLYVFGSGTKVTVL
notes: AB3 family
B14: H2/L2-80 (antibody, V domains shown)
VH: QVQLQSSGGGVVQPGRSLRLSCAASGFTFSSYGMHWVRQAPGKGLEWVAVISYTGSNKYYADSVKGRFTISRDNSKNTLYLQMNSLRAEDTAVYYCGGSGYALHDDYYGLDVWGQGTLVTVSS
VL: QSALTQPASVSGSPGQSITISCTGTSSDVGGYNYVSWYQQHPGKAPKLMIYDVSNRAWGVSNRFSGSKFGNTASLTISGLQAEDEADYYCSSYTSSSALYVFGSGTKVTVL
notes: AB3 family
B15: H3-6 (antibody, V domains shown)
VH: QAQLQRSGGGVVQPGRSLRLSCAASGFTFSSYGMHWVRQAPGKGLEWVAVISYDDAHKYYADSVKGRFTISRDNSKNTLYLQMNSLRAEDTAVYYCGGSGYALHDQYKPVDVWGQGTLVTVSS
VL: QSALTQPASVSGSPGQSITISCTGTSSDVGGYNYVSWYQQHPGKAPKLMIYEVSNRLRGVSNRFSGSKFGNTASLTISGLQAEDEADYYCSSYTSSSALYVFGSGTKVTVL
notes: AB3 family
B16: H3-2 (antibody, V domains shown)
VH: QAQLQESEGGVVQPGGSLRLSCAASGFTFSSYGMHWVRQAPGKGLEWVAVISYNDLNKYYADSVKGRFTISRDNSKNTLYLQMNSLRAEDTAVYYCGGSGYALHDFQDPTDVWGQGTLVTVSS
VL: QSALTQPASVSGSPGQSITISCTGTSSDVGGYNYVSWYQQHPGKAPKLMIYEVSNRLRGVSNRFSGSKFGNTASLTISGLQAEDEADYYCSSYTSSSTLYVFGSGTKVTVL
notes: AB3 family
B17: H2/L2-88 (antibody, V domains shown)
VH: QVQLQSSEGGVVQPGRSLRLSCAASGFTFSSYGMHWVRQAPGKGLEWVAVISYKGSNKYYADSVKGRFTISRDNSKNTLYLQMNSLRAEDTAVYYCGGSGYALHDDYYGLDVWGQGTLVTVSS
VL: QSALTQPASVSGSPGQSITISCTGTSSDVGGYNYVSWYQQHPGKAPKLMIYEVSNRLRGVSNRFSGSKFGNTASLTISGLQAEDEADYYCSSYTSSSALYVFGSGTKVTVL
notes: AB3 family
B18: H2/L2-18 (antibody, V domains shown)
VH: QAQLQGSGGGVVQPGRSLRLSCAASGFTFSSYGMHWVRQAPGKGLEWVAVISYKGSHKYYADSVKGRFTISRDNSKNTLYLQMNSLRAEDTAVYYCGGSGYALHDDYYGLDVWGQGTLVTVSS
VL: QSALTQPASVSGSPGQSITISCTGTSSDVGGYNYVSWYQQHPGKAPKLMIYDVSNRPWGVSNRFSGSKFGNTASLTISGLQAEDEADYYCSSYTSSSTLYVFGSGTKVTVL
notes: AB3 family
B19: H2/L2-68 (antibody, V domains shown)
VH: QAQLQSSEGGVVQPGRSLRLSCAASGFTFSSYGMHWVRQAPGKGLEWVAVISYRGFNKYYADSVKGRFTISRDNSKNTLYLQMNSLRAEDTAVYYCGGSGYALHDDYYGQDVWGQGTLVTVSS
VL: QSALTQPASVSGSPGQSITISCTGTSSDVGGYNYVSWYQQHPGKAPKLMIYDVSNRLSGVSNRFSGSKFGNTASLTISGLQAEDEADYYCSSYTSSSTLYVFGSGTKVTVL
notes: AB3 family
B20: H2/L2-20 (antibody, V domains shown)
VH: QAQLQSSGGGVVQPGRSLRLSCAASGFTVSSYGMHWVRQAPGKGLEWVAVISYTGSNKYYADSVKGRFTISRDNSKNTLYLQMNSLRAEDTAVYYCGGSGYALHDDYYGLDVWGQGTLVTVSS
VL: QSALTQPASVSGSPGQSITISCTGTSSDVGGYNYVSWYQQHPGKAPKLMIYDVSNRLRGVSNRFSGSKFGNTASLTISGLQAEDEADYYCSSYTSSSALYVFGSGTKVTVL
notes: AB3 family
B21: H3-11 (antibody, V domains shown)
VH: QVQLQSSEGGVVQPGRSLRLSCAASGFTFSSYGMHWVRQAPGKGLEWVAVISYNDANKYYADSVKGRFTISRDNSKNTLYLQMNSLRAEDTAVYYCGGSGYELRDDYYGLDVWGQGTLVTVSS
VL: QSALTQPASVSGSPGQSITISCTGTSSDVGGYNYVSWYQQHPGKAPKLMIYEVSNRLRGVSNRFSGSKFGNTASLTISGLQAEDEADYYCSSYTSSSTLYVFGSGTKVTVL
notes: AB3 family

Target: T1, human BCMA
Experiment: affinity maturation of PI-61

Binder	binding result
B1	binds
B2	binds
B3	binds
B4	binds
B5	binds
B6	binds
B7	binds
B8	binds
B9	binds
B10	binds
B11	binds
B12	binds
B13	binds
B14	binds
B15	binds
B16	binds
B17	binds
B18	binds
B19	binds
B20	binds
B21	binds
